The source of these data is paper PMC9513677, “Systematic multi‐level analysis of an organelle proteome reveals new peroxisomal functions” (Molecular Systems Biology, 2022).

Primed or numbered codes have the meaning given here. Where no end group is shown, it is not given here. FITC′ = fluorescein isothiocyanate

The test concerns the target T1, Full‐length Saccharomyces cerevisiae Pex5 (purified, for fluorescence anisotropy) (Saccharomyces cerevisiae, UniProt P35056 1-612).
T1 construct: Pex5, peroxisomal targeting factor (PTS1 receptor), Saccharomyces cerevisiae, full length; also called purified yeast Pex5; source: expressed in autoinduction medium, purified (Ni‐NTA, TEV digestion, second Ni‐NTA, gel filtration Superdex 200)
T1 sequence (looked up): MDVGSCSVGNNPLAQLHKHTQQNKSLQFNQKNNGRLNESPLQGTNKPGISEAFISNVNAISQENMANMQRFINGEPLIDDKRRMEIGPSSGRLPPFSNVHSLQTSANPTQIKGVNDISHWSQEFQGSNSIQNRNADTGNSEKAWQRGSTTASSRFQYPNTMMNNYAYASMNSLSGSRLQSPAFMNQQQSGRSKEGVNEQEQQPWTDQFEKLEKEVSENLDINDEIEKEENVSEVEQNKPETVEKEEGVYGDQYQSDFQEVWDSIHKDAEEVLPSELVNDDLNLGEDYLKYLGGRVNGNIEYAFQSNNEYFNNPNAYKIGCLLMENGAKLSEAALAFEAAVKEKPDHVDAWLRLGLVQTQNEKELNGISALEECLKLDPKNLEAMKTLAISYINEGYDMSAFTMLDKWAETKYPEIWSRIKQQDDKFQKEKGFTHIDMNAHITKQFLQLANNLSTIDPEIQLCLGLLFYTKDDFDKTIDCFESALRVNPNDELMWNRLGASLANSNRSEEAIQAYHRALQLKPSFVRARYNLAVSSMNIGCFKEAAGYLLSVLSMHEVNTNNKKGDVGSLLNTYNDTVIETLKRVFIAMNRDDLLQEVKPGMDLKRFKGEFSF
The test can be described thus: fluorescence polarisation; fluorescence anisotropy; FITC peptide at 10 nM, Pex5 in serial dilution; 50 mM Hepes pH 7.5, 150 mM NaCl; black 96-well plates, excitation/detection 470/530 nm; three independent experiments; binding-saturation model with one binding site. As to conditions: both partners purified.

B1: FITC-labeled peptide of the carboxyl‐terminal 10 amino acids of Yhl045w (Pxp3) (peptide)
peptide: {FITC′}-RKRVLGVAYL
notes: Yhl045w (Pxp3, Peroxisomal protein 3), Saccharomyces cerevisiae, the carboxyl-terminal 10 amino acids; also called Pxp3 motif; Pxp3 targeting peptide; source: synthetic peptide (Genscript)
In turn, B1 gave a dissociation constant (Kd) of 9.5 ± 2.9 µM.

B2: FITC-labeled peptide of the carboxyl terminus of Idp3 (known PTS1 motif) (peptide)
peptide: {FITC′}-YEDKKGMCKL
notes: tyrosine added at the N terminal of the Idp3 peptide for concentration determination; not part of Idp3; Idp3, Saccharomyces cerevisiae, carboxyl terminus with the PTS1 motif; also called PTS1 motif from Idp3; source: synthetic peptide (Genscript)
Consider B2, for which the Kd amounted to 5.5 ± 0.5 µM.
